Test results as given in patent US6861508B2, “Transcriptional intermediary factor-2” (Institut National de la Sante et de la Recherche Medicale, priority 1996, dated 2005).

Tests used:
[1] = tested on: ER, RARα and RXRα LBDs; experiment: GST pull-down of TIF2 polypeptides with NR LBDs; type: binding; conditions: in vitro, with or without 10^−6 M ligand
Procedure, shortened: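 In vitro GST-fusion pull-downs tested TIF2 deletion or point-mutant polypeptides against ER or RARα LBDs. Point-mutant binding was quantified relative to a TIF2.1 wildtype standard. Values are means of at least three experiments with SD.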

[2] = tested on: CBP (residues 1872 to 2165); experiment: GST-CBP pull-down of TIF2 polypeptides; type: binding
Description: (d) Mapping of the CBP-interacting domain of TIF2. GST puld own experiments were performed with ^35S-labeled in-vitro-translated TIF2 polypeptides and bacterially produced GST and GST-CBP (expressing CBP residues 1872 to 2165).
(c) Interaction of TIF2 AF-1 mutants with CBP in vitro. GST pull-down experiments were performed with ^35S-labeled in-vitro-translated GAL-TIF2 fusion proteins and bacterially produced GST and GST-CBP.
(c) Interaction of TIF2.13 wildtype and TIF2.13 mutants with CBP in vitro. GST pull-down experiments were performed with ^35S-labeled in-vitro-translated VP16-TIF2.13 polypeptides and bacterially produced GST and GST-CBP.
(§1) Furthermore, it was reported that SRC-1, which belongs to the same gene family as TIF2, interacts with CBP and p300 (Kamei, Y. et al., Cell 85:403-414 (1996); Yao, T. P. et al., Proc. Natl. Acad. Sci. USA 93:10626-10631 (1996); Hanstein, B., et al., Proc. Natl. Acad Sci USA 93:11540-11545 (1996)). Using GST-fusion protein-based interaction and animal cell-based two hybrid assays, we therefore analyzed whether TIF2 could also interact with CBP. […] A GST-CBP fusion protein was expressed in E. coli and used for puU-down assays with in vitro translated TIF2 polypeptides (FIG. 7d).

[3] = tested on: GAL-CBP; experiment: two hybrid analysis of CBP-TIF2 interaction in HeLa cells; type: cell-based
Description: (e) Two hybrid analysis of the CBP-TIF2 interaction in mammalian cells in vivo. HeLa cells were transfected with 0.2 μg of the GAL4 or GALA-CBP (expressing CBP residues 1872 to 2165) expression vectors together with 0.2 μg of the VP16 or VPI6-TF2 expression vectors in the presence of 2 μg of (17m)5-TATA-CAT reporter plasmid. Fold induction relative to the GAL-CBP activity is indicated. The mean of three experiments is shown; in each case, values varied by less than ±20%.
HeLa cells were transfected with 0.2 μg of GAL4 or GAL-CBP expression vectors together with 0.2 μg of VP16 or VP16-TIF2.13 expression vectors in the presence of 1 μg of (17m)5-TATA-CAT reporter plasmid. Data are represented as fold induction of the activity seen with GAL-CBP alone. The mean and standard, deviation obtained from ten experiments are shown. The expression levels were confirmed by Western blotting with antibodies directed against GAL4 DBD and VP16 AAD (data not shown).
as §1

[4] = molecular target: T1, GST-hRARα(DEF) (pGEX2T-hRARα(DEF), amino acids 153-462) (human, UniProt P10276 153-462); experiment: GST pull-down with 35S in-vitro-translated TIF2 polypeptides, with or without 10^-6 M all-trans-retinoic acid
T1 construct: range 153-462; Bacterially produced; also called GST-RAR; GST-RARα(DEF); not shown: glutathione-S-transferase (GST) of pGEX2T (Pharmacia)
T1 sequence (looked up): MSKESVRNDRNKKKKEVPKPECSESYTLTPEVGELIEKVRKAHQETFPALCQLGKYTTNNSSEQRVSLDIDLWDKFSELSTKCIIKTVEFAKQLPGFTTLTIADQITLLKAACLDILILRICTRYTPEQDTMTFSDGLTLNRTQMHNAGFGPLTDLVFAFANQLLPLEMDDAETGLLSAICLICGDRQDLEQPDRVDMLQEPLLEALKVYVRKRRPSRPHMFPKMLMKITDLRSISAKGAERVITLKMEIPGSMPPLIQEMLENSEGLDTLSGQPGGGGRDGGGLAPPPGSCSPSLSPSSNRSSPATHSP

binding to NRs (ER, RARα LBDs) [1]: cannot bind NRs
binding to GST-CBP in vitro [2]: did not show any binding
binding result [4]: no binding
B1: TIF2.2 (TIF2 amino acids 1288-1464) (other)
chain: NPRIPQANAQQFPFPPNYGISQQPDPGFTGATTPQSPLMSPRMAHTQSPMMQQSQANPAYQAPSDINGWAQGNMGGNSMFSQQSPPHFGQQANTSMYSNNMNINVSMATNTGGMSSMNQMTGQISMTSVTSVSTSGLSSMGPEQVNDPALRGGNLFPNQLPGMDMIKQEGDTTRKYC
notes: In-vitro-translated; also called AD2
interaction with GAL-CBP, two hybrid [3]: not
